Test results: patent publication EP2450379B1

Legend:
[1] = biological target: recombinant HA, subtype H1 (A/New Caledonia/20/99 (H1N1)) (influenza A virus A/New Caledonia/20/99 (H1N1)) (UniProt Q289M7); assay: ELISA, IgG 5 µg/ml
[2] = biological target: recombinant HA, subtype H3 (A/Wyoming/3/2003(H3N2)) (influenza A virus A/Wyoming/3/2003 (H3N2)); assay: ELISA, IgG 5 µg/ml
[3] = biological target: recombinant HA, subtype H5 (A/Vietnam/1203/2004 (H5N1)) (influenza A virus A/Vietnam/1203/2004 (H5N1)) (UniProt Q80A26); assay: ELISA, IgG 5 µg/ml
[4] = biological target: recombinant HA, subtype H7 (A/Netherlands/219/03 (H7N7)) (influenza A virus A/Netherlands/219/03 (H7N7)); assay: ELISA, IgG 5 µg/ml
[5] = biological target: recombinant HA, subtype H9 (A/Hong Kong/1073/99 (H9N2)) (influenza A virus A/Hong Kong/1073/99 (H9N2)); assay: ELISA, IgG 5 µg/ml
[6] = biological target: full-length HA from isolate A/Vietnam/1194/2004 (H5N1TV) expressed on PER.C6 cells (influenza A virus A/Vietnam/1194/2004 (H5N1)) (UniProt Q80A26); assay: FACS on HA (H5N1TV)-expressing PER.C6 cells, IgG 1 µg/ml
[7] = biological target: full-length HA from isolate A/Vietnam/1194/2004 (H5N1TV) expressed on PER.C6 cells (influenza A virus A/Vietnam/1194/2004 (H5N1)) (UniProt Q80A26); assay: FACS on HA (H5N1TV)-expressing PER.C6 cells, IgG 10 µg/ml
[8] = biological target: full-length HA from isolate A/Vietnam/1194/2004 (H5N1TV) expressed on PER.C6 cells (influenza A virus A/Vietnam/1194/2004 (H5N1)) (UniProt Q80A26); assay: FACS on HA (H5N1TV)-expressing PER.C6 cells, IgG 0.1 µg/ml
[9] = biological target: full-length HA from isolate A/Vietnam/1194/2004 (H5N1TV) expressed on PER.C6 cells (influenza A virus A/Vietnam/1194/2004 (H5N1)) (UniProt Q80A26); assay: FACS on HA (H5N1TV)-expressing PER.C6 cells, IgG 1 µg/ml, separate experiment
[10] = biological target: full-length HA from isolate A/Vietnam/1194/2004 (H5N1TV) expressed on PER.C6 cells (influenza A virus A/Vietnam/1194/2004 (H5N1)) (UniProt Q80A26); assay: FACS on HA (H5N1TV)-expressing PER.C6 cells, IgG 10 µg/ml, separate experiment
[11] = biological target: full-length HA from isolate A/Vietnam/1194/2004 (H5N1TV) expressed on PER.C6 cells (influenza A virus A/Vietnam/1194/2004 (H5N1)) (UniProt Q80A26); assay: FACS on HA (H5N1TV)-expressing PER.C6 cells, IgG 0.1 µg/ml, separate experiment

Substance	OD 492nm [1]	OD 492nm [2]	OD 492nm [3]	OD 492nm [4]	OD 492nm [5]	flow cytometry signal [6]	flow cytometry signal [7]	flow cytometry signal [8]	flow cytometry signal [9]	flow cytometry signal [10]	flow cytometry signal [11]
CR3014 (antibody)	0.08 OD 492nm	0.07 OD 492nm	0.09 OD 492nm	0.17 OD 492nm	0.16 OD 492nm	10	13.1	6.21	7.95	9.15	10.5
CR6261 (antibody)		0.07 OD 492nm	1.44 OD 492nm	0.31 OD 492nm							
